Results: patent US20220356229A1 (published 2022)

Legend:
[1] = biological target: SARS-CoV-2 Spike (S) protein, wild type, full length (SARS-CoV-2, UniProt P0DTC2 14-1273)
[2] = biological target: SARS-CoV-2 Spike protein (wild type) (SARS-CoV-2, UniProt P0DTC2 14-1208)
[3] = biological target: SARS-CoV-2 Spike protein, wild type, full length (SARS-CoV-2, UniProt P0DTC2 14-1208)

B1: antibody 377 (antibody, V domains shown)
VH: EVQLVESGGGLVKPGGSLRLSCATSGFTFRTYSMNWVRQAPGKGLEWVSSITTSRNYIYYADSVRGRFTISGDNANNSLYLQMNSLRAEDTAVYYCARVRFVRDTRKPYYFDFWGQGTLVTVSS
VL: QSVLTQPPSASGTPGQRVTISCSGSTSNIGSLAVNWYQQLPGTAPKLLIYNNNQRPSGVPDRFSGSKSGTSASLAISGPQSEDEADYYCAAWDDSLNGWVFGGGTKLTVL
fold over isotype (median fluorescence intensity) [1]: 0.78 fold over isotype

B2: anti-SARS-CoV-2 antibody 278 (antibody, V domains shown)
VH: QVQLVQSGAEVKKPGASVKVSCKASGYTFTSYYMHWVRQAPGQGLEWMGIINPSGGSTSYAQKFQGRVTMTRDTSTSTVYMELSSLRSEDTAVYYCARDHSNADPYYDFWSGYYTRTYYYGMDVWGQGTTVTVSS
VL: not shown
Kd [2]: 4.28 nM

B3: anti-SARS-CoV-2 antibody 307 (antibody, V domains shown)
VH: QVQLVESGGGVVQPGRSLRLSCAASGFTFSSYGMHWVRQAPGKGLEWVAVIWYDGSNKYYADSVKGRFTISRDNSKNTLYLQMNSLRAEDTAVYYCAKGYTWDYYYYGMDVWGQGTTVTVSS
VL: not shown
kon [2]: 101000 M⁻¹ s⁻¹

B4: antibody 474 (antibody, V domains shown)
VH: EVQLVESGGGLVQPGGSLRLSCAASGFTFSSYWMHWVRQAPGKGLVWVSRINSDGSSTSYADSVKGRFTISRDNAKNTLYRQMNSLRAEDTAVYYCALGPLDIVGSYYYYGMDVWGQGTTVTVSS
VL: NFMLTQPHSVSESPGKTVTISCTGSSGSIASNYVQWYQQRPGSAPTTVIYEDNQRPSGVPDRFSGSIDSSSNSASLTISGLKTEDEADYYCQSYDSSNQDVVFGGGTKLTVL
binding signal (fold over isotype control) [3]: 1.47 fold over isotype
